Here are results for one molecule from patent publication US20240287165A1 (GENERAL HOSPITAL, published 2024).

The target in experiment [1] is T1, full-length wild type human ApoE3 recombinant protein (His-tagged) (human, UniProt P02649 19-317).
T1 construct: Recombinant protein from Innovagen; also called ApoE3 WT full-length protein; APOE3 WT; not shown: histidine tag
The experiment is described as follows: BLI (BLItz), mAb 1H4 on protein A biosensor, run with 71.43 nM ApoE3, global fit. As for the experimental part: (§1) The binding affinity between ApoE3 and the monoclonal antibody 1H4 (mAb 1H4) was determined using the advanced kinetic module of the BLItz system (Blitz Pro, FB-609928, ver. 1.3.1.3). Briefly, a protein A biosensor was loaded with mAb 1H4 and both association and dissociation constants were determined at increasing concentrations of the full length ApoE3 protein (Innovagen) from 0 to 571.4 nM. The following running settings were used: 30 s initial baseline in the experimental media, 120 s loading of the ligand (mAb 1H4) on the biosensors, 30 s new baseline before association (120 s) and dissociation (120 s) steps. A total of 6 runs of 420 s at 2200 rpm and room temperature were conducted to determine the binding parameters of ApoE3. Global fitting and step corrections of the dissociation experiments were performed using the BLItz software (ver. 1.1.0.7). […] KD, Ka and Kd were measured (table 10) and calculated using the BLItz system. Top panel is representative of the association steps, the bottom panel is representative of the dissociation steps of the binding kinetic. The X and Y axes depicts time in second and binding in nM, respectively.

The target of experiment [2] is T1, full-length wild type human ApoE3 …. The experiment is described as follows: BLI (BLItz), mAb 1H4 on protein A biosensor, run with 571.4 nM ApoE3, global fit. As for the experimental part: as §1
The target is the same in experiment [3]. Description: BLI (BLItz), mAb 1H4 on protein A biosensor, run with 285.7 nM ApoE3, global fit. How it is done:
as §1

For experiment [4] the target is unchanged. Description: BLI (BLItz), mAb 1H4 on protein A biosensor, run with 35.71 nM ApoE3, global fit. As for the experimental part: as §1
Experiment [5] shares this target. Description: BLI (BLItz), mAb 1H4 on protein A biosensor, run with 35.71 nM ApoE3, global fit; columns shifted: value stands under 'Ka Error' but is the kd (0.04142/2900000 = 14.28 nM). As for the experimental part: as §1
Experiment [6] shares this target. The experiment is described as follows: BLI (BLItz), mAb 1H4 on protein A biosensor, run with 571.4 nM ApoE3, global fit; columns shifted: value stands under 'Ka Error' but is the kd (0.04142/2900000 = 14.28 nM). How it is done: as §1
The target of experiment [7] is T2, full-length ApoE3ch (ApoE3 Christchurch R136S) mutant recombinant protein (His-tagged) (human, UniProt P02649 19-317).
T2 construct: also called ApoE3ch full length protein; APOE3ch Mutant; not shown: histidine tag
Description: ELISA, parental hybridoma clone.

The target of experiment [8] is T3, ApoEch peptide KLH-CTEELRVSLASHLRK-CONH2 (human, not fully specified; C-terminal amide (CONH2); printed with KLH on the added N-terminal cysteine).
T3 construct: also called Mut peptide; mutant ApoE peptide
T3 peptide: CTEELRVSLASHLRK
The experiment is described as follows: ELISA, parental hybridoma clone.

For experiment [9], the target named is T1, full-length wild type human ApoE3 …. The experiment is described as follows: ELISA, parental hybridoma clone.
Experiment [10] has as its target T4, wild type ApoE peptide KLH-CTEELRVRLASHLRK-CONH2 (human, not fully specified; C-terminal amide (CONH2); printed with KLH on the added N-terminal cysteine).
T4 construct: also called WT peptide; ApoE3 WT peptide
T4 peptide: CTEELRVRLASHLRK
Description: ELISA, parental hybridoma clone.

The target of experiment [11] is T2, full-length ApoE3ch (ApoE3 Christchurch …). Description: ELISA of 1H4-2 subclone serum on ApoE3ch full length protein, O.D. 450 nm against dilution factor.
The target in experiment [12] is T1, full-length wild type human ApoE3 …. The experiment is described as follows: BLI (BLItz), mAb 1H4 on protein A biosensor, run with 71.43 nM ApoE3, global fit; columns shifted: value stands under 'Ka Error' but is the kd (0.04142/2900000 = 14.28 nM). As for the experimental part: as §1
The target is the same in experiment [13]. The experiment is described as follows: BLI (BLItz), mAb 1H4 on protein A biosensor, run with 142.9 nM ApoE3, global fit; columns shifted: value stands under 'Ka Error' but is the kd (0.04142/2900000 = 14.28 nM). How it is done:
as §1

Experiment [14] addresses T5, mouse recombinant ApoE (mouse, UniProt P08226 19-311).
T5 construct: also called mouse recombinant ApoE3; msApoE
T5 sequence (looked up): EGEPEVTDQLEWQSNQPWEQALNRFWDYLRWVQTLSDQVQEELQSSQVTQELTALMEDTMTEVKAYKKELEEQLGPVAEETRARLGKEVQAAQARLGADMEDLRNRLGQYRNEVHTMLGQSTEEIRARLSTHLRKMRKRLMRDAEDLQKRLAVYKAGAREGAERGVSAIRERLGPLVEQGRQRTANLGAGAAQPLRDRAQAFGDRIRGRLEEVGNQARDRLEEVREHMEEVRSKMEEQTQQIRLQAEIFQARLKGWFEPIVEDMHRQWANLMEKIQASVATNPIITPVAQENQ
Description: ELISA, His-tagged target on anti-His plate, serial antibody dilutions, anti-mouse HRP, O.D. 450 nm. How it is done:
To test selectivity of the antibodies for huApoE3WT, huApoE3ch or msApoE, anti-his ELISA coated plates were incubated with 0.0025 μg/μL of the target protein for 2 h at R.T. under gentle shaking. Wells were washed 5 times with 1X wash buffer (R&D) and subsequently incubated with serial dilutions of Innovagen antibody of interest over night at 4° C. on a shaker (100 μL/well). The following day, wells were washed 5 times with sample buffer and incubated for 45 minutes using Rabbit-anti-mouse HRP-conjugated buffer (1:10,000; 100 μL/well; Abcam). After 5 more washes, plates were incubated with chromogen A+B 1:1 to initiate the colorimetric reaction (100 μL/well). The reaction was stopped with 2 N […] (R&D stop solution., 50 μL/well) and absorbance detected at 450 nm spectroscopically.

Experiment [15] has as its target T3, ApoEch peptide KLH-CTEELRVSLASHLRK-CONH2. The experiment is described as follows: ELISA of 1H4-2 subclone serum on ApoE3ch peptide, O.D. 450 nm against dilution factor.
Experiment [16] concerns the target T1, full-length wild type human ApoE3 …. The experiment is described as follows: BLI (BLItz), mAb 1H4 on protein A biosensor, run with 285.7 nM ApoE3, global fit; columns shifted: value stands under 'Ka Error' but is the kd (0.04142/2900000 = 14.28 nM). As for the experimental part: as §1
The target is the same in experiment [17]. The experiment is described as follows: BLI (BLItz), mAb 1H4 on protein A biosensor, run with 142.9 nM ApoE3, global fit. How it is done:
as §1

T1 sequence (P02649 19-317): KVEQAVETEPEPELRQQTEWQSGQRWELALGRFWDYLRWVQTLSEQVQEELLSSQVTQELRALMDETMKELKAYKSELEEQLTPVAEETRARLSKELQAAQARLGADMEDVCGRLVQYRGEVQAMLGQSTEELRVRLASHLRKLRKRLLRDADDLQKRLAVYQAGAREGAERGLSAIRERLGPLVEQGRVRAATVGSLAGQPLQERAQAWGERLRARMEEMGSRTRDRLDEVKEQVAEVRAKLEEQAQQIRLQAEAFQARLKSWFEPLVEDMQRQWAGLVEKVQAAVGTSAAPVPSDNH
T2 sequence (P02649 19-317 R154S): as the sequence (P02649 19-317) above, with R136S counted along it

B1: antibody 1H4-2 (antibody, V domains shown)
VH: EVKLVESGGGVVQPGGSLKLSCAASGFTFSSYTMSWVRQTPEKRLEWVAKIRNGGGITYYLDTLKGRFTISRDNAKNTLYLQMSSLKSEDTAIYFCARHYYGSEDYFDYWGQGTTLTVSS
VL: DNVLTQSPASLAVSLGQRATISCKASQSVDYDGDSYMNWYQQKPGQPPKVFIYAASNLESGIPARFSGSGSGTDFTLNIHPVEEEDAATYYCQQSNEDPWTFGGGTKLEIK
notes: also called mAb 1H4; monoclonal 1H4 antibody
As to B1, the equilibrium dissociation constant (Kd) in experiment [1], in experiment [2], in experiment [3], in experiment [4] and in experiment [17] was 0.0143 µM throughout. The kon in experiment [1], in [2], in experiment [3], in experiment [4] and in experiment [17] was 2.9e+06 M⁻¹ s⁻¹ throughout. Also, the off-rate constant (koff) in [5], in [6], in experiment [12], in experiment [13] and in experiment [16] was 0.0414 s⁻¹ in each case. Further, the “absorbance (ELISA)” value in experiment [7] was found to be 0.056 absorbance; in experiment [8], 0.07 absorbance; in experiment [9] it was 2.11 absorbance; in experiment [10], 2.58 absorbance. Further, the binding result is “no binding (tested: 1:10 dilution)” in [11], “no binding (tested: 1:500 dilution)” in [14] and “no binding (tested: 1:10 dilution)” in experiment [15].
